Molecular target: full-length native GPC (strain Josiah) expressed on HEK293T cells (Lassa virus, strain Josiah, UniProt P08669)
Experiment: flow cytometry on cells
Details: one partner purified

B1: 25.10C IgG (antibody, V domains shown)
VH: QVQLQESGGGLVKPGGSLRLSCTASGFNFNKYNMNWVRQAPGKGLEWVSSISALSTYIYYADSLKGRFTVSRDNAKNSLFLQMNSLRDDDTAVYYCAREIRRASTWSADLWGRGTLVTVSS
VL: DIQMTQSPSSLSASVGDRVIITCRASQSISSSLNWYQQKPGKAPKLLIYAAVNLETGVPSRFSGSGFGTDFTLAISNVQPEDFATYYCQQSDTRTFGRGTKLDVK
notes: IgG1
binding result: binds
